One molecule from paper PMC4374754 can be followed below.

The target of assay [1] is RecA D112R N113R, fluorescein-labelled (E. coli). In words: fluorescence polarisation; 20 nM fluorescein-labelled RecA titrated with pol V in solution, no ssDNA (inactive complex); pol V standard reaction buffer (20 mM Tris pH 7.5, 8 mM MgCl2, 5 mM DTT, 0.1 mM EDTA, 25 mM sodium glutamate, 4% glycerol), 25°C; apparent Kd, one-site specific binding. (In general: In fluorescence polarisation assays a small probe gives low polarisation when free and higher when bound to something large.)

The target of assay [2] is RecA D112R, fluorescein-labelled (E. coli). The assay is described as above.

B1: DNA polymerase V (UmuD′2C) (complex)
chain 1: MFALCDVNAFYASCETVFRPDLWGKPVVVLSNNDGCVIARNAEAKALGVKMGDPWFKQKDLFRRCGVVCFSSNYELYADMSNRVMSTLEELSPRVEIYSIDEAFCDLTGVRNCRDLTDFGREIRATVLQRTHLTVGVGIAQTKTLAKLANHAAKKWQRQTGGVVDLSNLERQRKLMSALPVDDVWGIGRRISKKLDAMGIKTVLDLADTDIRFIRKHFNVVLERTVRELRGEPCLQLEEFAPTKQEIICSRSFGERITDYPSMRQAICSYAARAAEKLRSEHQYCRFISTFIKTSPFALNEPYYGNSASVKLLTPTQDSRDIINAATRSLDAIWQAGHRYQKAGVMLGDFFSQGVAQLNLFDDNAPRPGSEQLMTVMDTLNAKEGRGTLYFAGQGIQQQWQMKRAMLSPRYTTRSSDLLRVK
chain 2: GFPSPAADYVEQRIDLNQLLIQHPSATYFVKASGDSMIDGGISDGDLLIVDSAITASHGDIVIAAVDGEFTVKKLQLRPTVQLIPMNSAYSPITISSEDTLDVFGVVIHVVKAMR
As for B1, the primer utilization in the pol V transactivation assay (RecA* on poly dT, hairpin primer-template, 1 h at 37°C) with RecA D112R (E. coli) was found to be 27%. Besides, the Kd in assay [1] and in assay [2] was 250 nM each time.
